From the supplement of paper PMC9112550, “Optimization of the antimicrobial peptide Bac7 by deep mutational scanning” (BMC Biology, 2022)

test system: Escherichia coli TOP10; assay: shrunken log2 fold change of peptide-encoding DNA abundance (4.5 h post-induction vs induction); higher = less antimicrobial activity (less host growth inhibition); conditions: time post-induction: 4.5 h; library: site-saturation at positions 5, 18, 19, 20
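Also: peptides expressed intracellularly from a pBAD plasmid library in pooled LB shake-flask culture, induced with 0.3% L-arabinose, DNA abundance read by NGS, three biological replicates, DESeq2 with apeglm shrinkage.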

Row | Sequence | shrunken log2 fold change
1 | RRIRVRPPRLPRPRPRPGGPPRP | 0.0704
2 | RRIRCRPPRLPRPRPRPVANPRP | 0.0866
3 | RRIRGRPPRLPRPRPRPPDLPRP | 0.791
4 | RRIRLRPPRLPRPRPRPLQIPRP | -0.092
5 | RRIRQRPPRLPRPRPRPIFHPRP | -0.176
6 | RRIRARPPRLPRPRPRPTWHPRP | 0.419
7 | RRIRHRPPRLPRPRPRPMQKPRP | -0.0124
8 | RRIRQRPPRLPRPRPRPVMPPRP | 0.0623
9 | RRIRQRPPRLPRPRPRPEAKPRP | 0.0428
10 | RRIRGRPPRLPRPRPRPNIIPRP | 0.0628
11 | RRIRDRPPRLPRPRPRPLPQPRP | 0.282
12 | RRIRIRPPRLPRPRPRPEDEPRP | 0.0112
13 | RRIRQRPPRLPRPRPRPAACPRP | 0.183
14 | RRIRGRPPRLPRPRPRPTEHPRP | 0.569
15 | RRIRFRPPRLPRPRPRPFGMPRP | -0.223
16 | RRIRGRPPRLPRPRPRPVGSPRP | 0.749
17 | RRIRSRPPRLPRPRPRPEEFPRP | -0.00122
18 | RRIRYRPPRLPRPRPRPIPAPRP | -0.0717
19 | RRIRFRPPRLPRPRPRPPASPRP | 0.574
20 | RRIRTRPPRLPRPRPRPNCSPRP | -0.435
21 | RRIRGRPPRLPRPRPRPQADPRP | 0.43
22 | RRIRNRPPRLPRPRPRPNDRPRP | -0.218
23 | RRIRTRPPRLPRPRPRPAKNPRP | -0.0492
24 | RRIRWRPPRLPRPRPRPHLMPRP | -0.0519
25 | RRIRSRPPRLPRPRPRPNYCPRP | -0.352

Row | Sequence | shrunken log2 fold change
26 | RRIRQRPPRLPRPRPRPFAPPRP | 0.0897
27 | RRIRNRPPRLPRPRPRPVGEPRP | 0.112
28 | RRIRMRPPRLPRPRPRPIDIPRP | 0.476
29 | RRIRSRPPRLPRPRPRPLNYPRP | -0.166
30 | RRIRYRPPRLPRPRPRPPRKPRP | 0.319
31 | RRIRARPPRLPRPRPRPSTYPRP | -0.356
32 | RRIRVRPPRLPRPRPRPNKNPRP | 0.0192
33 | RRIRMRPPRLPRPRPRPNKFPRP | 0.0721
34 | RRIRKRPPRLPRPRPRPHHWPRP | 0.706
35 | RRIRERPPRLPRPRPRPTSEPRP | 0.0668
36 | RRIRFRPPRLPRPRPRPYIDPRP | -0.348
37 | RRIRNRPPRLPRPRPRPQCSPRP | -0.148
38 | RRIRSRPPRLPRPRPRPNNNPRP | -0.604
39 | RRIRIRPPRLPRPRPRPEKGPRP | -0.257
40 | RRIRKRPPRLPRPRPRPTNGPRP | 0.0599
41 | RRIRPRPPRLPRPRPRPVCAPRP | 0.396
42 | RRIRPRPPRLPRPRPRPFFLPRP | -0.041
43 | RRIRPRPPRLPRPRPRPSWIPRP | -0.179
44 | RRIRGRPPRLPRPRPRPHEIPRP | 0.0317
45 | RRIRDRPPRLPRPRPRPFIFPRP | -0.0526
46 | RRIRGRPPRLPRPRPRPGPIPRP | 0.619
47 | RRIRDRPPRLPRPRPRPDWMPRP | 0.0771
48 | RRIRHRPPRLPRPRPRPVFRPRP | 0.0291
49 | RRIRLRPPRLPRPRPRPSMFPRP | -0.498
50 | RRIRRRPPRLPRPRPRPRCHPRP | 0.127

Row | Sequence | shrunken log2 fold change
51 | RRIRLRPPRLPRPRPRPLTHPRP | -0.0644
52 | RRIRERPPRLPRPRPRPCGGPRP | -0.0228
53 | RRIRLRPPRLPRPRPRPDNWPRP | -0.0493
54 | RRIRSRPPRLPRPRPRPKMFPRP | -0.00685
55 | RRIRHRPPRLPRPRPRPGRFPRP | 0.314
56 | RRIRLRPPRLPRPRPRPAVGPRP | -0.0315
57 | RRIRCRPPRLPRPRPRPFMRPRP | 0.0501
58 | RRIRCRPPRLPRPRPRPTWGPRP | 0.301
59 | RRIRLRPPRLPRPRPRPKIPPRP | -0.292
60 | RRIRVRPPRLPRPRPRPHLHPRP | -0.279
61 | RRIRPRPPRLPRPRPRPRKIPRP | -0.0764
62 | RRIRQRPPRLPRPRPRPYYRPRP | -0.124
63 | RRIRWRPPRLPRPRPRPTKVPRP | -0.0596
64 | RRIRVRPPRLPRPRPRPMIEPRP | -0.255
65 | RRIRCRPPRLPRPRPRPLIGPRP | -0.0236
66 | RRIRRRPPRLPRPRPRPTIMPRP | 0.0494
67 | RRIRQRPPRLPRPRPRPVNPPRP | -0.085
68 | RRIRGRPPRLPRPRPRPQGSPRP | -0.0808
69 | RRIRWRPPRLPRPRPRPLMKPRP | -0.0639
70 | RRIRYRPPRLPRPRPRPLQAPRP | -0.057
71 | RRIRDRPPRLPRPRPRPKQCPRP | 0.101
72 | RRIRERPPRLPRPRPRPMSWPRP | 0.13
73 | RRIRSRPPRLPRPRPRPSFPPRP | -0.557
74 | RRIRQRPPRLPRPRPRPQKFPRP | -0.283
75 | RRIRPRPPRLPRPRPRPFCIPRP | -0.463

Row | Sequence | shrunken log2 fold change
76 | RRIRNRPPRLPRPRPRPHLCPRP | 0.183
77 | RRIRMRPPRLPRPRPRPDSWPRP | 1.59
78 | RRIRHRPPRLPRPRPRPTKFPRP | -0.138
79 | RRIRLRPPRLPRPRPRPMDWPRP | -0.0759
80 | RRIRKRPPRLPRPRPRPLYLPRP | -0.17
81 | RRIRWRPPRLPRPRPRPGCVPRP | 0.607
82 | RRIRRRPPRLPRPRPRPPIRPRP | 2.1
83 | RRIRSRPPRLPRPRPRPVIWPRP | 0.0455
84 | RRIRFRPPRLPRPRPRPSGSPRP | -0.192
85 | RRIRTRPPRLPRPRPRPVNKPRP | 0.0243
86 | RRIRDRPPRLPRPRPRPWLLPRP | 0.0241
87 | RRIRCRPPRLPRPRPRPITTPRP | -0.197
88 | RRIRRRPPRLPRPRPRPWQAPRP | 0.0707
89 | RRIRDRPPRLPRPRPRPHQHPRP | -0.308
90 | RRIRCRPPRLPRPRPRPMYTPRP | -0.551
91 | RRIRTRPPRLPRPRPRPDPHPRP | -0.00783
92 | RRIRLRPPRLPRPRPRPKYGPRP | -0.364
93 | RRIRMRPPRLPRPRPRPIMLPRP | -0.351
94 | RRIRERPPRLPRPRPRPFCYPRP | -0.927
95 | RRIRYRPPRLPRPRPRPCIWPRP | -0.176
96 | RRIRFRPPRLPRPRPRPVCIPRP | -0.541
97 | RRIRGRPPRLPRPRPRPPVVPRP | 1.7
98 | RRIRLRPPRLPRPRPRPGEDPRP | 0.121
99 | RRIRIRPPRLPRPRPRPQAMPRP | -0.0316
100 | RRIRARPPRLPRPRPRPRCTPRP | 0.392

Row | Sequence | shrunken log2 fold change
101 | RRIRIRPPRLPRPRPRPHGGPRP | -0.0479
102 | RRIRPRPPRLPRPRPRPQYSPRP | -0.0482
103 | RRIRERPPRLPRPRPRPNMCPRP | -0.369
104 | RRIRCRPPRLPRPRPRPLDLPRP | -0.0926
105 | RRIRSRPPRLPRPRPRPPSKPRP | 0.0454
106 | RRIRGRPPRLPRPRPRPPGAPRP | 1.51
107 | RRIRCRPPRLPRPRPRPARRPRP | 0.555
108 | RRIRVRPPRLPRPRPRPLYEPRP | -0.168
109 | RRIRARPPRLPRPRPRPINLPRP | -0.376
110 | RRIRDRPPRLPRPRPRPMRWPRP | 0.274
111 | RRIRFRPPRLPRPRPRPYVEPRP | -0.315
112 | RRIRLRPPRLPRPRPRPDIYPRP | -0.458
113 | RRIRARPPRLPRPRPRPGRDPRP | 0.671
114 | RRIRLRPPRLPRPRPRPFFVPRP | -0.168
115 | RRIRWRPPRLPRPRPRPWIYPRP | 0.0862
116 | RRIRKRPPRLPRPRPRPMGEPRP | -0.0199
117 | RRIRMRPPRLPRPRPRPFHPPRP | -0.0444
118 | RRIRYRPPRLPRPRPRPGMAPRP | -0.262
119 | RRIRHRPPRLPRPRPRPACVPRP | 0.0678
120 | RRIRIRPPRLPRPRPRPSDGPRP | -0.0648
121 | RRIRDRPPRLPRPRPRPVSSPRP | -0.0849
122 | RRIRCRPPRLPRPRPRPPEVPRP | 0.124
123 | RRIRDRPPRLPRPRPRPIVHPRP | -0.25
124 | RRIRQRPPRLPRPRPRPLNHPRP | 0.133
125 | RRIRLRPPRLPRPRPRPMLAPRP | 0.369

Row | Sequence | shrunken log2 fold change
126 | RRIRPRPPRLPRPRPRPQMCPRP | -0.101
127 | RRIRHRPPRLPRPRPRPEVFPRP | -0.0194
128 | RRIRKRPPRLPRPRPRPWRCPRP | -0.0463
129 | RRIRGRPPRLPRPRPRPDYHPRP | -0.139
130 | RRIRERPPRLPRPRPRPSADPRP | -0.625
131 | RRIRVRPPRLPRPRPRPNVIPRP | -0.329
132 | RRIRIRPPRLPRPRPRPAENPRP | -0.0424
133 | RRIRRRPPRLPRPRPRPVMWPRP | 0.0562
134 | RRIRIRPPRLPRPRPRPMFIPRP | -0.454
135 | RRIRGRPPRLPRPRPRPVQMPRP | 0.844
136 | RRIRPRPPRLPRPRPRPYCAPRP | -0.312
137 | RRIRNRPPRLPRPRPRPNNTPRP | -0.798
138 | RRIRNRPPRLPRPRPRPVRYPRP | -0.0196
139 | RRIRPRPPRLPRPRPRPCFAPRP | 0.0019
140 | RRIRERPPRLPRPRPRPQYAPRP | -0.158
141 | RRIRRRPPRLPRPRPRPKHFPRP | 0.3
142 | RRIRTRPPRLPRPRPRPRYWPRP | -0.156
143 | RRIRGRPPRLPRPRPRPAYNPRP | -0.34
144 | RRIRVRPPRLPRPRPRPTKGPRP | 0.118
145 | RRIRKRPPRLPRPRPRPWSRPRP | -0.0012
146 | RRIRMRPPRLPRPRPRPPCGPRP | 0.788
147 | RRIRTRPPRLPRPRPRPIFEPRP | -0.113
148 | RRIRHRPPRLPRPRPRPTPIPRP | 0.226
149 | RRIRGRPPRLPRPRPRPEWSPRP | 0.644
150 | RRIRKRPPRLPRPRPRPRRMPRP | 0.488
